Test results: patent publication CN115197321A (UNIV SICHUAN, dated 2022)
Where a chain is given by its changes, count along the chain named. Numbers in names are those of the source. Where two headings read alike, the source gives them in different places. Each block holds one molecule with its values, some of them ahead of it.

Columns and labels:
[1] = molecular target: CD25-hIgG1Fc(人CD25胞外域的C端融合人IgG1的Fc段) (human) (UniProt P01589); experiment: ELISA, coated CD25-hIgG1Fc 1 μg/mL
[2] = molecular target: T1, 人CD25 (on CD25-positive cells: SU-DHL-1, U937, NK-92, human PBMC) (human, UniProt P01589 22-272); experiment: flow cytometry on SU-DHL-1 and U937 cells, Figure 8
T1 construct: whole, on cells; Endogenous CD25 on human cells; also called IL-2Rα
T1 sequence (looked up): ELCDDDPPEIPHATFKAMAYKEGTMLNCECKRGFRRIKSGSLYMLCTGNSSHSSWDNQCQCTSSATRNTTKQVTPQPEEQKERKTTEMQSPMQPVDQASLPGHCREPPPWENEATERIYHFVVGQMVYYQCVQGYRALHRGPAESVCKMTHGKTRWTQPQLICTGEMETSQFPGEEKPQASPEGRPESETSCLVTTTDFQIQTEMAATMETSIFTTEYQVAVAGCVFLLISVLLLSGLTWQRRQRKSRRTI

[3] = molecular target: T2, CD25-His(人CD25胞外域的C端融合6×His标签) (human, UniProt P01589 22-240); experiment: SPR (Biacore) binding kinetics, Figure 6
T2 construct: extracellular domain; Made in-house; also called 人CD25-His
T2 sequence: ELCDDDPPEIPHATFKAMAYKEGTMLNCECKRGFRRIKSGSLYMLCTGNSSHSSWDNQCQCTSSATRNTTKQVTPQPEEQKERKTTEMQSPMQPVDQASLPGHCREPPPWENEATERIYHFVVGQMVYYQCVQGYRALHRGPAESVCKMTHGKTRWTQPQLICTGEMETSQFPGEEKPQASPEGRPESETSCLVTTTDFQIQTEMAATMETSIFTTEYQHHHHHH

鼠CD25(R&D公司) = molecular target: T3, 鼠CD25(R&D公司) (鼠 (mouse), UniProt P01590 22-236, limits assumed); experiment: ELISA, coated mouse CD25 50 ng/well, hybridoma supernatant
T3 construct: Bought protein
T3 sequence (looked up): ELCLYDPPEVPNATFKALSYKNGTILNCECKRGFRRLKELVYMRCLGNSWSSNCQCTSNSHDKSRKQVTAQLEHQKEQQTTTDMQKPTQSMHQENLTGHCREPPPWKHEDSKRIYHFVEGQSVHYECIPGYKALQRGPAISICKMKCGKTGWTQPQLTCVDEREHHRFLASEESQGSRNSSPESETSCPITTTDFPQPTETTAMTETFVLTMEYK

[4] = molecular target: T2, CD25-His(人CD25胞外域的C端融合6×His标签); experiment: SPR (Biacore)
[5] = molecular target: T2, CD25-His(人CD25胞外域的C端融合6×His标签); experiment: SPR (Biacore); remark: listed apart in the source

OD450 [1]: < 0.3 OD
Molecule: 小鼠IgG (antibody)

binding result [4]: no binding
B4: h7B7-15Y (antibody, V domains shown)
VH: QVQLQESGPGLVKPSQTLSLTCAVYGYSITSDYAWNWIRQPPGKGLEWIGYIYYSGSTSYNPSLKSRVTISVDTSKNQFSLKLSSVTAADTAVYYCARKGGFFDVWGQGTTVTVSS
VL: DIQMTQSPSSLSASVGDRVTITCSASQGISNYLNWYQQKPGKAPKLLIYYTSSLHSGVPSRFSGSGSGTDFTFTISSLQPEDIATYYCLQYSKLPWTFGGGTKVEIK
notes: Mutant of h7B7-15 in the N of the NYS motif of VH-CDR2; human IgG1κ as the parent; also called h7B7突变体 N53Y

binding result (鼠CD25(R&D公司)): no binding
B10: 杂交瘤抗体F10 (antibody, IgG2a, V domains shown)
VH: QVQLKQSGPGLVQPSQSLSITCTVSGFSLTSYGVHWVRQSPGKGLEWLGVIWRGGSTDYNAAFMSRLSITKDNSKSQVFFKMNSLQAGDTAVYYCAKNERFYGFDYWGQGTTLTVSS
VL: DIVMTQAAFSNPVTLGTSASISCRSSKSLLHSNGITYLYWYLQKPGQSPQLLIYQMSNLASGVPDRFSSSGSGTDFTLRISRVEAEDVGVYYCAQNLELPTFGSGTKLEIK
notes: Mouse hybridoma antibody, mIgG2a; the tie to the hybridoma antibody rests on that statement

binding result [5]: no binding
B11: hF10-2-1(BM4+BM) (antibody, V domains shown)
VH: QVQLKQSGPGLVKPSDTLSLTCTVSGFSLTSYGVHWVRQPPGKGLEWLGVIWRGGSTDYNAAFMSRLSITKDNSKSQVSLKLSSVTAADTAVYYCAKNERFYGFDYWGQGTLVTVSS
VL: B10 VL with A7S, A8P, F9L, N11L, L15P, T17E, S18P, R79K, S104G, L108V
notes: Made as for h7B7 (human IgG1κ)

binding result [5]: no binding
B12: hF10-2-2(BM5+BM) (antibody, V domains shown)
VH: B11 VH with Q6E, V37I, L48I
VL: B10 VL with A7S, A8P, F9L, N11L, L15P, T17E, S18P, R79K, S104G, L108V
notes: as for B11

The next lines start with the molecule.

B1: 重组单克隆抗体7B7 (antibody, V domains shown)
VH: EVQLQESGPGLVKPSQSLSLTCTVTGYSITSDYAWNWIRQFPGNKLEWMGYINYSGSTSYNPSLKSRISITRDTSKNQFFLQLNSVTTEDTATYYCARKGGFFDVWGAGTTVTVSS
VL: DIQMTQTTSSLSASLGDRVTISCSASQGISNYLNWYQQKPDGTVKLLIYYTSSLHSGVPSRFSGSGSGTDYSLTISNLEPEDIATYYCLQYSKLPWTFGGGTKLEIK
notes: a human-mouse chimeric IgG1κ form was also made; also called 抗体7B7(来自B7)
binding result [2]: binds
binding result [3]: binds

B2: 杂交瘤抗体B7 (antibody, IgG1, V domains shown)
VH: B1 VH
VL: B1 VL
notes: Mouse hybridoma antibody, mIgG1; the tie to the hybridoma antibody rests on that statement
binding result (鼠CD25(R&D公司)): no binding

B3: 人源化抗体h7B7-15 (antibody, V domains shown)
VH: B4 VH with Y53N
VL: B4 VL
notes: Human IgG1κ; heavy chain 4 (IGHV4-34*09) with light chain 3 (IGKV1-33*01)
Kd [4]: 2.33 nM
koff [4]: 0.000356 s⁻¹
kon [4]: 153000 M⁻¹ s⁻¹

B5: h7B7-15Q (antibody, V domains shown)
VH: B4 VH with Y53Q
VL: B4 VL
notes: Mutant of h7B7-15 in the N of the NYS motif of VH-CDR2; human IgG1κ as the parent; also called h7B7突变体 N53Q
Kd [4]: 21.1 nM
koff [4]: 0.00502 s⁻¹
kon [4]: 238000 M⁻¹ s⁻¹

B6: h7B7-15S (antibody, V domains shown)
VH: B4 VH with Y53S
VL: B4 VL
notes: N53S mutant of h7B7-15; human IgG1κ as the parent; also called h7B7突变体 N53S
Kd [4]: 4.83 nM
koff [4]: 0.000554 s⁻¹
kon [4]: 115000 M⁻¹ s⁻¹

B7: h7B7-15A (antibody, V domains shown)
VH: B4 VH with Y53A
VL: B4 VL
notes: Mutant of h7B7-15 in the N of the NYS motif of VH-CDR2; human IgG1κ as the parent; also called h7B7突变体 N53A
Kd [4]: 8.55 nM
koff [4]: 0.00103 s⁻¹
kon [4]: 121000 M⁻¹ s⁻¹

B8: 重组单克隆抗体F10-2 (antibody, V domains shown)
VH: B10 VH
VL: B10 VL
notes: a human-mouse chimeric IgG1κ form was also made; also called 抗体F10-2(来自F10)
binding result [2]: binds
binding result [3]: binds

B9: hF10-2-3(BM4+BM3) (antibody, V domains shown)
VH: B11 VH
VL: B10 VL with A7S, A8P, F9L, N11L, L15P, T17E, S18P, S104G, L108V
notes: as for B11
Kd [5]: 10.5 nM
koff [5]: 0.00333 s⁻¹
kon [5]: 318000 M⁻¹ s⁻¹

B13: hF10-2-4(BM5+BM3) (antibody, V domains shown)
VH: B11 VH with Q6E, V37I, L48I
VL: B10 VL with A7S, A8P, F9L, N11L, L15P, T17E, S18P, S104G, L108V
notes: as for B11
Kd [5]: 18.1 nM
koff [5]: 0.00126 s⁻¹
kon [5]: 69900 M⁻¹ s⁻¹
